Results as given in article PMC5061367.

Experiments:
[1] = target: APOBEC3C I188 (human) (UniProt Q9NRW3); assay: SEC; 10 μg of purified enzyme on a 10 mL Superdex 200 column; 50 mM Tris pH 8.0, 200 mM NaCl, 1 mM DTT; masses from a Bio-Rad standard curve; fractions read by SDS-PAGE and Western blot
[2] = target: APOBEC3C I188 (human) (UniProt Q9NRW3); assay: cross-linking; 0.5 μM protein with 10 μM BS3 in 20 mM Hepes pH 7.5, 150 mM NaCl, 1 mM DTT, 1 hour at 21°C; SDS-PAGE and Western blot with anti-APOBEC3C

In the case of “APOBEC3C I188 (from UniProt Q9NRW3 1-190) (enzyme)”, the stoichiometry N [1] is reported as 2 and the stoichiometry N [2] is reported as 2.
